Values joined by “and” are separate entries in the source; they are usually repeats but may differ in a detail not shown here. Identical values can stand only once.
Target: Ostreolysin A6 (Pleurotus ostreatus)
Experiment: high-speed atomic force microscopy; OlyA6 added (final around 0.35 uM, 5.8 ug/ml) to a d17:1/12:0-CPE/Chol (1:1) supported lipid bilayer on mica, PBS 10 mM pH 7.5, room temperature; self-assembly on the membrane

Substance: Ostreolysin A6 (natural protein)
- stoichiometry N: 6 and 2
